The data set in a line: protein stability index of a GFP-peptide fusion (GPS, HEK-293T) (PSI 1-6); higher = more stable.
Where [1] appears, read: treatment: DMSO, c terminus: a fixed tail appended.
[2] abbreviates: treatment: MLN4924 1 uM, 8 h, c terminus: a fixed tail appended.

± gives the standard deviation.
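Note: 24-mer peptide tiles fused after GFP, lentivirally expressed, FACS-sorted into six equal bins by GFP/DsRed ratio, decoded by Illumina sequencing, PSI is the read-weighted mean bin number.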

Turning to GVLDALHVLEGLFRTDPEAKVKLV [ZSWIM9], the protein stability index was 2.28 ± 0.23 under setting [1] and 2.25 ± 0.18 under setting [2].
Taken in the same sequence, the figures for GVNTVFHCASPPPSSNNKELFYRV [NSDHL] were 2.53 ± 0.23 and 2.4 ± 0.1.
GVSFHIDSAELEPGSQTAVKNSNR [FBXO34]: the protein stability index under setting [1] was determined as 4.71 ± 0.26 and the protein stability index under setting [2] stood at 5.03 ± 0.38.
The corresponding values for GWSTPPKCRSTISAEKCGPPPPID [CFHR2] are 3.72 ± 0.38 and 3.93 ± 0.25.
As to GYGIYYFIYSTWKGRTIYLEDIYV [SAT2], the protein stability index by setting is: under setting [1], 2.9 ± 0.16; under setting [2], 2.78 ± 0.43.
As for GYRQQKAYIATQGPLAETTEDFWR [PTPRD], the protein stability index turned out to be 3.28 ± 0.22 under setting [1] and 3.36 ± 0.42 under setting [2].
The corresponding values for GYSSLDQSPDEKPLVALDTDSDDD [FAM219A] are 5.69 ± 0.17 and 5.48 ± 0.31.
As for GYWRVRLWNGDKYAATTTPFTPLH [TRIM39], the protein stability index under setting [1] was 2.08 ± 0.42 and the protein stability index under setting [2] came to 2.35 ± 0.93.
Take HALRKKQLKRQKRDYIHSLKLLNV [FAM9B]: the protein stability index under setting [1] came to 2.6 ± 0.42 and the protein stability index under setting [2] is 2.84 ± 0.27.
The corresponding values for HCWDVAGAGIIVTEAGGVLMDVTG [IMPA1] are 2.4 ± 0.25 and 2.52 ± 0.51.
HDPLYGKLFSTYLRPPHTSRGTSQ [LPCAT4]: the protein stability index is 3.27 ± 0.34 under setting [1] and 3.76 ± 0.21 under setting [2].
The corresponding values for HEEERINIYCLNCEVPTCSLCKVF [TRIM55] are 2.95 ± 0.39 and 3.16 ± 0.32.
Regarding HEEQLQRLKLLKDREVDAATSATS [FBF1], the protein stability index under setting [1] was 5.18 ± 0.28 and the protein stability index under setting [2] amounted to 5.25 ± 0.24.
HGDARATGREMHGKNWSKLCKDCQ [TPPP] had a protein stability index under setting [1] of 4.18 ± 0.13 and a protein stability index under setting [2] of 4.53 ± 0.23.
Taken in the same sequence, the figures for HGVELHSDVIEYAKQKLDFFIRTS [PCMTD2] were 2.37 ± 0.2 and 2.48 ± 0.29.
As for HHKVYDLTKFLEEHPGGEEVLREQ [CYB5A], the protein stability index by setting is: under setting [1], 4.44 ± 0.27; under setting [2], 4.65 ± 0.19.
Taken in the same sequence, the figures for HHVEREKDHSSSRPSSPRPQKASP [BTBD10] were 5.36 ± 0.28 and 5.54 ± 0.14.
For the sequence HIDPDVLYPSLNVTSFDSVVPEKL [ALG2], the protein stability index by setting is: under setting [1], 3.83 ± 0.25; under setting [2], 3.91 ± 0.21.
The corresponding values for HKLQEEKAFREEMKIFREKIEDFR [CCDC70] are 3.38 ± 0.3 and 3.61 ± 0.31.
The corresponding values for HKPKNSEELYKEIDGVATTRYSVA [PTPRD] are 4.43 ± 0.17 and 4.66 ± 0.21.
The corresponding values for HKYNTTSTSYSPLASLPLKADTKG [PLAGL1] are 4.23 ± 0.16 and 4.41 ± 0.2.
For HLADLVSYSIQKVIGFAKMIPGFR [VDR], the protein stability index under setting [1] is 4.2 ± 0.43 and the protein stability index under setting [2] was 4.18 ± 0.25.
As to HLHLETFKAVLDGLDVLLAQEVRP [PRAME], the protein stability index by setting is: under setting [1], 2.18 ± 0.43; under setting [2], 1.98 ± 0.29.
Taken in the same sequence, the figures for HLVEETRIHVLPSLNPDGYEKAYE [CPXM2] were 4.46 ± 0.15 and 4.34 ± 0.046.
For HPGSGTKVQFNLQFTKPNASLGDV [SASS6], the protein stability index is 3.17 ± 0.44 under setting [1] and 3.23 ± 0.23 under setting [2].
The corresponding values for HQLYTSSSHHSHSYIGLPYADHNY [KMT2E] are 2.5 ± 0.042 and 2.53 ± 0.21.
Taken in the same sequence, the figures for HRRGLGVDSKPELQRVLEHRRRNQ [FAM107A] were 4.01 ± 0.4 and 4.11 ± 0.31.
Consider HSHPPEIKDQGGAGEGLVRSANGF [MAP2], for which the protein stability index runs as follows: under setting [1], 4.7 ± 0.14; under setting [2], 4.76 ± 0.2.
The corresponding values for HSRRHESYSRGYSYHDGYGEALGR [RBMY1A1] are 3.14 ± 0.3 and 3.24 ± 0.36.
The sequence HTLILMFIWFVCSLVYYGLTLSAG [SLC22A15] displayed a protein stability index under setting [1] of 2.42 ± 0.79 and a protein stability index under setting [2] of 2.16 ± 0.36.
Taken in the same sequence, the figures for HVHCFTCAACKTPIRNRAFYMEEG [PDLIM7] were 2.24 ± 0.11 and 2.47 ± 0.23.
As to HVNFSHLTTKDYMEMYNVIMTVKE [SLC6A17], the protein stability index worked out at 2.41 ± 0.32 under setting [1] and 2.44 ± 0.52 under setting [2].
As for IAGGLAGMGGIQNEKETMQSLNDR [KRT18], the protein stability index under setting [1] came to 4.83 ± 0.24 and the protein stability index under setting [2] is 4.81 ± 0.33.
Take IANCKLFRLQLQQGLFRIRVHSP [GAN]: the protein stability index by setting is: (treatment: DMSO, c terminus: native) 3.45 ± 0.51; (treatment: MLN4924 1 uM, 8 h, c terminus: native) 2.6 ± 0.38.
In the case of IARVADGLPLAASMQEDEQSGRDL [SEC22B], the protein stability index reads like this: under setting [1], 5.24 ± 0.22; under setting [2], 5.33 ± 0.15.
As to IASIGRHRYIAYMANQEAAIQAFL [IQUB], the protein stability index under setting [1] stood at 2.39 ± 0.73 and the protein stability index under setting [2] came to 2.17 ± 0.36.
The corresponding values for ICCDKCSVWQHIDCMGIDRQHIPD [KMT2E] are 2.7 ± 0.28 and 2.87 ± 0.43.
In turn, IDEHHFVAVALRKPDGSRHQDVPS [AASDHPPT] had a protein stability index under setting [1] of 4 ± 0.17 and a protein stability index under setting [2] of 4.07 ± 0.19.
Taken in the same sequence, the figures for IDNANRILGPAYFVTYVFFVFFVL [PKD2L1] were 2.67 ± 0.71 and 2.67 ± 0.6.
The corresponding values for IDQWSMLGDMQTAREGAGLVVASG [KLHL12] are 3.36 ± 0.15 and 3.52 ± 0.051.
Taken in the same sequence, the figures for IENLAKANPQYTVYSQASTMSIPV [PPP2R5C] were 2.8 ± 0.22 and 2.65 ± 0.25.
As for IFRDNQWVGFDDVESFKTKVSYLK [CHIT1], the protein stability index was 2.54 ± 0.34 under setting [1] and 2.81 ± 0.24 under setting [2].
The corresponding values for IGKWFDFKLFFNGRPGIVAWTLIN [DHCR7] are 2.56 ± 0.42 and 2.46 ± 0.18.
The corresponding values for IGSVEEQLAQLRCEMEQQSQEYQI [KRT16] are 4.82 ± 0.15 and 4.85 ± 0.18.
Taken in the same sequence, the figures for IHFIAVAVCLLGVGTMVGADILAG [SLC35F2] were 2.8 ± 0.18 and 3.31 ± 0.45.
In the case of IIMWDIGGRKGRTLLLQGHHDKVQ [WDFY1], the protein stability index by setting is: under setting [1], 2.08 ± 0.55; under setting [2], 2.2 ± 0.12.
Taken in the same sequence, the figures for IIYMGSFMLMLLVLGIQVKCFHEI [CDS1] were 3.57 ± 0.85 and 3.27 ± 0.34.
The corresponding values for IKHVLQTFGPIPEFSRATAEKVNQ [CRYL1] are 3.39 ± 0.44 and 3.43 ± 0.51.
Taken in the same sequence, the figures for IKWLKEAEEESSGGEEEDEDENIE [EIF5] were 5.41 ± 0.14 and 5.49 ± 0.25.
With ILIIISVIVQIKQPRKKYVQRKSD [NETO1], the protein stability index was determined as 2.86 ± 0.64 under setting [1] and 2.52 ± 0.36 under setting [2].
Turning to ILLKVKTEIEEELKSLDKEISEAF [BCL2L13], the protein stability index is 2.75 ± 0.36 under setting [1] and 3.19 ± 0.33 under setting [2].
Regarding ILNFNDLMSSAVPMTPEDPSFWDC [AASDHPPT], the protein stability index is 2.71 ± 0.31 under setting [1] and 2.92 ± 0.2 under setting [2].
Consider ILSEEGRRQQAKLKELQAIAERLG [KCNAB2], for which the protein stability index reads like this: under setting [1], 3.57 ± 0.38; under setting [2], 3.73 ± 0.3.
Taken in the same sequence, the figures for ILSGARVNAKDNMWLTPLHRAVAS [ANKRD44] were 2.34 ± 0.1 and 2.4 ± 0.27.
Taken in the same sequence, the figures for ILSGKFTILNVRDPTGASIALFTA [PTPN9] were 2.84 ± 0.73 and 3.19 ± 0.74.
The corresponding values for ILSKVQKNHVGKPLLKMDLNSEQA [FAM98B] are 3.62 ± 0.31 and 3.46 ± 0.47.
With ILVVTVQLILFGLSNQLAVTFREE [MCOLN1], the protein stability index is 3.02 ± 0.39 under setting [1] and 3.05 ± 0.23 under setting [2].
The corresponding values for IMNFIDIVAIIPYFITLGTEIAEQ [KCNA1] are 3.2 ± 0.41 and 2.89 ± 0.15.
The corresponding values for IMSRVNAYQQGVGYQMLGNVVTIG [PHTF1] are 2.21 ± 0.48 and 2.31 ± 0.34.
The corresponding values for INSDTGVLYALRSFDYEQFHELQM [PCDHGA10] are 2.2 ± 0.2 and 2.35 ± 0.29.
Regarding IPLDLGCTQVTQDGDIPNIPAEEN [FAM189A2], the protein stability index runs as follows: under setting [1], 5.48 ± 0.12; under setting [2], 5.48 ± 0.18.
With IQECVPEDLELKKKIFAQLDSIID [CRYL1], the protein stability index came out at 3.07 ± 0.2 under setting [1] and 3.33 ± 0.34 under setting [2].
Taken in the same sequence, the figures for IQLRRWQETRGELQCRSPPRLHGA [TBC1D10A] were 2.74 ± 0.23 and 2.85 ± 0.39.
The corresponding values for IQPGPFRAVLKYLYTGELDENERD [RHOBTB2] are 3.37 ± 0.53 and 3.43 ± 0.25.
For the sequence IRESRLFGAVVRWAEAECQRQQLP [BTBD1], the protein stability index runs as follows: under setting [1], 2.5 ± 0.16; under setting [2], 2.46 ± 0.13.
Taken in the same sequence, the figures for IRLGIEGYPTYKEKVKKRPGGRPE [BTBD10] were 3.41 ± 0.54 and 3.42 ± 0.41.
Consider ISQMDSDQFIPIWTVANMEEIKKL [LARP4], for which the protein stability index is, setting by setting: under setting [1], 3.25 ± 0.19; under setting [2], 3.32 ± 0.16.
Taken in the same sequence, the figures for ITDNFCYFRHADPTWQNSIRHNLS [FOXJ1] were 2.32 ± 0.13 and 2.43 ± 0.17.
Take IVANTMPTHLSNGQMSTPETPQPS [HNF4A]: the protein stability index came to 4.43 ± 0.22 under setting [1] and 4.51 ± 0.15 under setting [2].
Taken in the same sequence, the figures for IVAVIDSAQLQELVCHVMMGNLVM [INTS3] were 3.25 ± 0.72 and 3.05 ± 0.55.
The corresponding values for IVDFLTHHAQTSKTERINALELLG [FEM1C] are 2.09 ± 0.14 and 2.18 ± 0.23.
As to IVKKPKSMQCKVILLDGSEYTCDV [EPB41L3], the protein stability index runs as follows: under setting [1], 1.93 ± 0.24; under setting [2], 2.23 ± 0.69.

(Values after the supplement of paper PMC10567573.)
